Experimental data: the supplement of paper PMC9112550, “Optimization of the antimicrobial peptide Bac7 by deep mutational scanning” (BMC Biology, 2022)

What follows are sequences tested on Escherichia coli TOP10 (assay: shrunken log2 fold change of peptide-encoding DNA abundance (4.5 h post-induction vs induction); higher = less antimicrobial activity (less host growth inhibition)). Conditions: time post-induction: 4.5 h; library: site-saturation at positions 5, 18, 19, 20.
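Note: peptides expressed intracellularly from a pBAD plasmid library in pooled LB shake-flask culture, induced with 0.3% L-arabinose, DNA abundance read by NGS, three biological replicates, DESeq2 with apeglm shrinkage.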

First: RRIRKRPPRLPRPRPRPLFRPRP
Second: RRIRFRPPRLPRPRPRPPENPRP
The “shrunken log2 fold change” value of the first is higher: 0.696 for the first, 0.102 for the second.

First: RRIRVRPPRLPRPRPRPMTCPRP
Second: RRIRRRPPRLPRPRPRPLSRPRP
The “shrunken log2 fold change” value of the first is lower: -0.141 for the first, 0.0601 for the second.

RRIRFRPPRLPRPRPRPTNTPRP and RRIRDRPPRLPRPRPRPQSTPRP are within 0.2 log units of each other in “shrunken log2 fold change” value: -0.414 for the first, -0.466 for the second.

Going from RRIRDRPPRLPRPRPRPNNPPRP to RRIRERPPRLPRPRPRPPWQPRP, the “shrunken log2 fold change” value rises from -0.357 to 0.0988.

RRIRTRPPRLPRPRPRPDQYPRP and RRIRWRPPRLPRPRPRPFGQPRP are within 0.2 log units of each other in “shrunken log2 fold change” value: -0.0122 for the first, -0.0338 for the second.

First: RRIRSRPPRLPRPRPRPYWYPRP
Second: RRIRWRPPRLPRPRPRPVQQPRP
The “shrunken log2 fold change” value of the first is lower: -1.45 for the first, -0.0911 for the second.

RRIRSRPPRLPRPRPRPCQCPRP and RRIRARPPRLPRPRPRPSRHPRP are within 0.2 log units of each other in “shrunken log2 fold change” value: 0.017 for the first, -0.00582 for the second.

Going from RRIRARPPRLPRPRPRPGMAPRP to RRIRQRPPRLPRPRPRPGMAPRP, the “shrunken log2 fold change” value falls from 0.709 to 0.0366.

Going from RRIRYRPPRLPRPRPRPSCWPRP to RRIRNRPPRLPRPRPRPIYQPRP, the “shrunken log2 fold change” value rises from -0.349 to 0.0607.

RRIRTRPPRLPRPRPRPDWKPRP and RRIRQRPPRLPRPRPRPTAHPRP are within 0.2 log units of each other in “shrunken log2 fold change” value: -0.0156 for the first, -0.0756 for the second.

RRIRNRPPRLPRPRPRPMEKPRP and RRIRMRPPRLPRPRPRPEHYPRP are within 0.2 log units of each other in “shrunken log2 fold change” value: 0.0048 for the first, -0.0905 for the second.

RRIRERPPRLPRPRPRPWWVPRP and RRIRMRPPRLPRPRPRPSDVPRP are within 0.2 log units of each other in “shrunken log2 fold change” value: -0.056 for the first, 0.141 for the second.

RRIRPRPPRLPRPRPRPWIRPRP and RRIRFRPPRLPRPRPRPITQPRP are within 0.2 log units of each other in “shrunken log2 fold change” value: -0.175 for the first, -0.278 for the second.

RRIRIRPPRLPRPRPRPFREPRP and RRIRRRPPRLPRPRPRPYGEPRP are within 0.2 log units of each other in “shrunken log2 fold change” value: -0.0279 for the first, -0.0212 for the second.

Going from RRIRHRPPRLPRPRPRPWFSPRP to RRIRFRPPRLPRPRPRPMLWPRP, the “shrunken log2 fold change” value rises from -0.294 to 0.165.

RRIRERPPRLPRPRPRPIYTPRP and RRIRQRPPRLPRPRPRPHCGPRP are within 0.2 log units of each other in “shrunken log2 fold change” value: 0.036 for the first, 0.0588 for the second.

RRIRKRPPRLPRPRPRPYQRPRP and RRIRYRPPRLPRPRPRPSADPRP are within 0.2 log units of each other in “shrunken log2 fold change” value: -0.0062 for the first, -0.18 for the second.

RRIRYRPPRLPRPRPRPLWPPRP and RRIRDRPPRLPRPRPRPQVKPRP are within 0.2 log units of each other in “shrunken log2 fold change” value: -0.135 for the first, -0.0431 for the second.

RRIRQRPPRLPRPRPRPIDRPRP and RRIRFRPPRLPRPRPRPDMSPRP are within 0.2 log units of each other in “shrunken log2 fold change” value: 0.118 for the first, -0.0802 for the second.

Going from RRIRTRPPRLPRPRPRPESYPRP to RRIRFRPPRLPRPRPRPCHMPRP, the “shrunken log2 fold change” value falls from -0.0242 to -0.285.

Compared with RRIRSRPPRLPRPRPRPDPRPRP, RRIRSRPPRLPRPRPRPFVHPRP is lower in “shrunken log2 fold change” value: 0.215 for the first, -0.291 for the second.

RRIRRRPPRLPRPRPRPPMYPRP and RRIRIRPPRLPRPRPRPEMLPRP are within 0.2 log units of each other in “shrunken log2 fold change” value: 0.0631 for the first, -0.119 for the second.

Going from RRIRMRPPRLPRPRPRPQTRPRP to RRIRCRPPRLPRPRPRPHTEPRP, the “shrunken log2 fold change” value falls from 1.05 to -0.273.

Compared with RRIRPRPPRLPRPRPRPGAPPRP, RRIRKRPPRLPRPRPRPFPGPRP is lower in “shrunken log2 fold change” value: 0.536 for the first, -0.0018 for the second.

Compared with RRIRRRPPRLPRPRPRPGWRPRP, RRIRHRPPRLPRPRPRPIGFPRP is lower in “shrunken log2 fold change” value: 0.425 for the first, -0.0167 for the second.

Going from RRIRDRPPRLPRPRPRPLKQPRP to RRIRKRPPRLPRPRPRPDMHPRP, the “shrunken log2 fold change” value falls from 0.681 to 0.051.

Going from RRIRNRPPRLPRPRPRPLFIPRP to RRIRARPPRLPRPRPRPVVWPRP, the “shrunken log2 fold change” value rises from -1.03 to 0.687.

Going from RRIRGRPPRLPRPRPRPRTDPRP to RRIRPRPPRLPRPRPRPSTNPRP, the “shrunken log2 fold change” value falls from 1.06 to -0.301.

Going from RRIRSRPPRLPRPRPRPEQMPRP to RRIRVRPPRLPRPRPRPDQYPRP, the “shrunken log2 fold change” value falls from -0.0112 to -0.234.

First: RRIRSRPPRLPRPRPRPWEVPRP
Second: RRIRARPPRLPRPRPRPHPYPRP
The “shrunken log2 fold change” value of the first is higher: 0.188 for the first, -0.484 for the second.

RRIRQRPPRLPRPRPRPTQPPRP and RRIRDRPPRLPRPRPRPQPPPRP are within 0.2 log units of each other in “shrunken log2 fold change” value: 0.356 for the first, 0.424 for the second.

Going from RRIRDRPPRLPRPRPRPEGVPRP to RRIRWRPPRLPRPRPRPLDDPRP, the “shrunken log2 fold change” value rises from 0.166 to 0.454.

RRIRLRPPRLPRPRPRPTSWPRP and RRIRARPPRLPRPRPRPITWPRP are within 0.2 log units of each other in “shrunken log2 fold change” value: 0.199 for the first, 0.0845 for the second.

Compared with RRIRWRPPRLPRPRPRPYIHPRP, RRIRWRPPRLPRPRPRPAEPPRP is higher in “shrunken log2 fold change” value: -0.405 for the first, 0.256 for the second.

Going from RRIRRRPPRLPRPRPRPPHRPRP to RRIRQRPPRLPRPRPRPHVSPRP, the “shrunken log2 fold change” value falls from 1.36 to -0.108.

Compared with RRIRCRPPRLPRPRPRPPEWPRP, RRIRRRPPRLPRPRPRPNHYPRP is lower in “shrunken log2 fold change” value: 0.575 for the first, -0.314 for the second.

First: RRIRTRPPRLPRPRPRPATKPRP
Second: RRIRSRPPRLPRPRPRPNQKPRP
The “shrunken log2 fold change” value of the first is higher: 0.0756 for the first, -0.162 for the second.

RRIRHRPPRLPRPRPRPMHAPRP and RRIRERPPRLPRPRPRPDYCPRP are within 0.2 log units of each other in “shrunken log2 fold change” value: -9.3e-05 for the first, -0.00145 for the second.

Compared with RRIRMRPPRLPRPRPRPGKGPRP, RRIRYRPPRLPRPRPRPNCFPRP is lower in “shrunken log2 fold change” value: 0.0403 for the first, -0.43 for the second.

First: RRIRNRPPRLPRPRPRPRWTPRP
Second: RRIRYRPPRLPRPRPRPYITPRP
The “shrunken log2 fold change” value of the first is higher: 0.0415 for the first, -0.529 for the second.

Compared with RRIRCRPPRLPRPRPRPVMTPRP, RRIRGRPPRLPRPRPRPTGKPRP is higher in “shrunken log2 fold change” value: -0.147 for the first, 0.899 for the second.

Going from RRIRGRPPRLPRPRPRPYASPRP to RRIRGRPPRLPRPRPRPTFLPRP, the “shrunken log2 fold change” value rises from 0.143 to 0.356.

RRIRFRPPRLPRPRPRPYGCPRP and RRIRIRPPRLPRPRPRPENTPRP are within 0.2 log units of each other in “shrunken log2 fold change” value: -0.531 for the first, -0.397 for the second.

Compared with RRIRRRPPRLPRPRPRPKEPPRP, RRIRRRPPRLPRPRPRPIIIPRP is lower in “shrunken log2 fold change” value: 0.293 for the first, 0.0103 for the second.

RRIRVRPPRLPRPRPRPSMHPRP and RRIRTRPPRLPRPRPRPDIAPRP are within 0.2 log units of each other in “shrunken log2 fold change” value: -0.177 for the first, -0.0105 for the second.

Going from RRIRARPPRLPRPRPRPFMSPRP to RRIRERPPRLPRPRPRPPSMPRP, the “shrunken log2 fold change” value falls from -0.0065 to -0.242.

Compared with RRIRSRPPRLPRPRPRPDWNPRP, RRIRMRPPRLPRPRPRPWRAPRP is higher in “shrunken log2 fold change” value: -0.298 for the first, 0.595 for the second.

RRIRIRPPRLPRPRPRPWCHPRP and RRIRARPPRLPRPRPRPTCLPRP are within 0.2 log units of each other in “shrunken log2 fold change” value: -0.122 for the first, 0.0548 for the second.

Going from RRIRSRPPRLPRPRPRPPRTPRP to RRIRHRPPRLPRPRPRPTFPPRP, the “shrunken log2 fold change” value falls from 0.619 to 0.145.

RRIRSRPPRLPRPRPRPNKRPRP and RRIRKRPPRLPRPRPRPCLLPRP are within 0.2 log units of each other in “shrunken log2 fold change” value: -0.174 for the first, -0.037 for the second.

RRIRWRPPRLPRPRPRPDELPRP and RRIRPRPPRLPRPRPRPCVAPRP are within 0.2 log units of each other in “shrunken log2 fold change” value: 0.402 for the first, 0.51 for the second.

First: RRIRNRPPRLPRPRPRPNYHPRP
Second: RRIRNRPPRLPRPRPRPVKFPRP
The “shrunken log2 fold change” value of the first is lower: -0.801 for the first, -0.0271 for the second.

Compared with RRIRWRPPRLPRPRPRPNEKPRP, RRIRLRPPRLPRPRPRPFFMPRP is lower in “shrunken log2 fold change” value: 0.0011 for the first, -0.369 for the second.

Compared with RRIRCRPPRLPRPRPRPLTHPRP, RRIRERPPRLPRPRPRPMFAPRP is higher in “shrunken log2 fold change” value: -0.345 for the first, 0.0495 for the second.

With RRIRVRPPRLPRPRPRPEQRPRP the “shrunken log2 fold change” value was 0.0562.
